Laboratory results: patent publication US7217700

Legend:
CCR7 (human) = CCR7 (human) (UniProt P32248); test: cell-based or functional assay
CCR6 (human) = target: T1, CCR6 (human) (UniProt P51684); test: cell-based or functional assay
T1 sequence (looked up): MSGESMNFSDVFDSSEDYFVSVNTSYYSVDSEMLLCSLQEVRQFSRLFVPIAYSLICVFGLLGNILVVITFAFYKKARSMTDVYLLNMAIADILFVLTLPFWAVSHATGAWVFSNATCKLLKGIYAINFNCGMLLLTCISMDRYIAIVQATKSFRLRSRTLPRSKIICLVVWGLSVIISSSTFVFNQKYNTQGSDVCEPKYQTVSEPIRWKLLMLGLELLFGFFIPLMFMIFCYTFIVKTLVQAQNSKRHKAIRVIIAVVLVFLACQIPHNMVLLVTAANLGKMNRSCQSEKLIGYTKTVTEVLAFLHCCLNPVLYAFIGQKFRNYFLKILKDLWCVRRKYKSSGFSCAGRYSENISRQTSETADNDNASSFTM

UniProt P32248, sequence (P32248 25-378): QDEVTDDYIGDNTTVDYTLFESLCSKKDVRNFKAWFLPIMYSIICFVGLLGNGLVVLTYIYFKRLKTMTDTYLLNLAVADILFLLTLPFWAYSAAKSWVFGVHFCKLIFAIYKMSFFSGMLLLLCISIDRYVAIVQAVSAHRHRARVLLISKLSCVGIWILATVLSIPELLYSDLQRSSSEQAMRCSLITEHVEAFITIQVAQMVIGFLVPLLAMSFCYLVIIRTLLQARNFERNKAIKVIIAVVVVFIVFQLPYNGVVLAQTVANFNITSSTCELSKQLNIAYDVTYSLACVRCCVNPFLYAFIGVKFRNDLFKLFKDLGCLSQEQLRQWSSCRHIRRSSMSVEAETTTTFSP

In the case of “Recombinant human MIP-3β (from UniProt Q99731 22-98) (ligand)”, the Ca2+ flux (Indo-1 fluorimetry) in mature CD34+-derived DC; concentration giving the maximal flux (CCR7 (human)) is reported as 30 ng/mL, the chemotaxis (Boyden microchamber) of mature DC (CD1a+CD86+); concentration needed to recruit the cells (CCR7 (human)) is reported as 300 ng/mL and the chemotaxis of CD40L-activated CD34+-derived DC; concentration required at 48 h (CCR7 (human)) is reported as 100 to 300 ng/mL.
For “Recombinant human MIP-3α (from UniProt P78556 27-96) (ligand)”, the Ca2+ flux (Indo-1 fluorimetry) in immature CD34+-derived DC; concentration giving the maximal flux (CCR6 (human)) was 30 ng/mL, the chemotaxis (Boyden microchamber) of DC precursors (CD1a-CD86-); concentration at which the response is detected (CCR6 (human)) was 1 to 10 ng/mL and the chemotaxis (Boyden microchamber) of immature DC (CD1a+CD86-); concentration needed to attract the cells (CCR6 (human)) was over 300 ng/mL.
